Data as given in US20190367620A1 (Merck KGaA, published 2019).

What was measured:
[1] = molecular target: T1, Human FGFR1 D2-His6 (human, UniProt P11362 22-254); assay: SPR; free energy change relative to wild-type D2
T1 construct: also called D2 domain; F3FR1c-D2
T1 sequence: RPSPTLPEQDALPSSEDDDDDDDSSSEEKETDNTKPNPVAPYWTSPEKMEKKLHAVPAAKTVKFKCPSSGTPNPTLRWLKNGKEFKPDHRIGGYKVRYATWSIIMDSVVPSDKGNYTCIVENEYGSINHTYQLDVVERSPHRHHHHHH
Procedure: (§1) Binding affinities of anti-FGFR1 antibodies to FGFR1 were measured by Surface Plasmon Resonance (SPR) using a GE Healthcare BIAcore 4000 instrument as follows. Goat anti-human Fc antibody (Jackson ImmunoResearch Laboratories #109-005-098) was first immobilized on BIAcore carboxymethylated dextran CM5 chip using direct coupling to free amino groups following the procedure described by the manufacturer. Antibodies were then captured on the CM5 biosensor chip to achieve approximately 200 response units (RU). Binding measurements were performed using the running HBS-EP+ buffer. A 2-fold dilution series of His-tagged FGFR1 proteins were injected at a flow rate of 30 μl/min at 25° C. Association rates (kₒₙ, per mol/s) and dissociation rates (koff, per s) were calculated using a simple 1:1 Langmuir binding model (Biacore 4000 Evaluation Software). The equilibrium dissociation constant (KD, mol) was calculated as the ratio of koff/kₒₙ.
To obtain a finer, residue-level mapping of the epitope and to complement the HD exchange data, molecular modelling and manual inspection of the crystal structure of FGFR1 [(Beenken et al. 2012); PDB record 3OJV] was used to select solvent exposed residues within and around the epitope identified by HD exchange. The selected residues were mutated either to alanine (large to small) or to glycine if the selected residue was alanine. In total 35 point mutants were designed, expressed and purified in HEK cells, and tested for binding to mAb #A08 using surface plasmon resonance as described in Example 1.8. The affinity of the antibody for wild-type and each mutant was determined and used to calculate the contribution of each epitope residue to the binding energy.
Variant were compared to wild-type D2. The change in the Gibbs free energy of binding of mutant relative to the wild-type D2 construct (ΔΔGₘᵤₜ) was derived from the ratio of the wild-type and mutant KD.

[2] = molecular target: FGFR1 on NCI-H520 cells (human, UniProt P11362 22-822); assay: cell-based or functional assay
[3] = molecular target: T2, human FGFR1b-IIIc extracellular domain with a HIS tag (human, UniProt P11362 22-376); assay: SPR (Biacore 4000), antibody captured, His-tagged FGFR1 injected; no unit in the table, nM inferred from paragraph 90
T2 construct: also called huFGFR1b-IIIc; hFGFR1b-IIIc
T2 sequence: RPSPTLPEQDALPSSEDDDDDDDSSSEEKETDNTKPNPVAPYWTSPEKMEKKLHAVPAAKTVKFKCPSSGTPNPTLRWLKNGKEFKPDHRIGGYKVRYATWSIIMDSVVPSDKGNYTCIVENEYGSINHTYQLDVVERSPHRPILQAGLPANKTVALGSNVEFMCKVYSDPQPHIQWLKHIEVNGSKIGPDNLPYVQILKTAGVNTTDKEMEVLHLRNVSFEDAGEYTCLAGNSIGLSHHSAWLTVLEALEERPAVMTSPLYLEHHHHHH
Procedure: as §1

[4] = molecular target: T3, rheFGFR1a-IIIc (rhesus monkey); assay: as above
T3 construct: Bought, His6 tag; also called rhesus monkey FGFR1a-IIIc His6-tagged
Procedure: as §1

[5] = molecular target: T4, ratFGFR1a-IIIc (rat, UniProt Q04589 22-376); assay: as above
T4 construct: Bought, His6 tag; also called rat FGFR1a-IIIc His6-tagged
T4 sequence (looked up): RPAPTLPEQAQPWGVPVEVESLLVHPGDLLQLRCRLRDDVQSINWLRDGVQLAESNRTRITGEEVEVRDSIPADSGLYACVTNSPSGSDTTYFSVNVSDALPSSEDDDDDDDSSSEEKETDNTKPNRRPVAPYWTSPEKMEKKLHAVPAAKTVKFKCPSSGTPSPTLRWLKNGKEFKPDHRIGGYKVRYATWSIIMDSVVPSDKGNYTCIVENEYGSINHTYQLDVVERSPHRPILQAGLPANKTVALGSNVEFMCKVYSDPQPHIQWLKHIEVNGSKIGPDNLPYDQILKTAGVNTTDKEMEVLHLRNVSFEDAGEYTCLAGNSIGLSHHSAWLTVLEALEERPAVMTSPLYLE
Procedure: as §1

[6] = molecular target: T5, human FGFR1b-IIIb extracellular domain with a HIS tag (human); assay: as above
T5 construct: also called huFGFR1b-IIIb; hFGFR1b-IIIb
T5 chain: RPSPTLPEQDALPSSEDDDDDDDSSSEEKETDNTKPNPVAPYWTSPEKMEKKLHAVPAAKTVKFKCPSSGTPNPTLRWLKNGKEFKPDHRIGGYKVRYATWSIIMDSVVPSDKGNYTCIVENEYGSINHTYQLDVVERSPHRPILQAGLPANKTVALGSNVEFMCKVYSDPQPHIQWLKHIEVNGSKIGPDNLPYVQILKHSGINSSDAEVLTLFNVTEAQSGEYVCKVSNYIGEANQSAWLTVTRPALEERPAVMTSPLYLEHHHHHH
Procedure: as §1

[7] = molecular target: T6, muFGFR1a-IIIc (mouse, UniProt P16092 22-376); assay: as above
T6 construct: Bought, His6 tag; also called mouse FGFR1a-IIIc His6-tagged; murine FGFR1a-IIIc
T6 sequence (looked up): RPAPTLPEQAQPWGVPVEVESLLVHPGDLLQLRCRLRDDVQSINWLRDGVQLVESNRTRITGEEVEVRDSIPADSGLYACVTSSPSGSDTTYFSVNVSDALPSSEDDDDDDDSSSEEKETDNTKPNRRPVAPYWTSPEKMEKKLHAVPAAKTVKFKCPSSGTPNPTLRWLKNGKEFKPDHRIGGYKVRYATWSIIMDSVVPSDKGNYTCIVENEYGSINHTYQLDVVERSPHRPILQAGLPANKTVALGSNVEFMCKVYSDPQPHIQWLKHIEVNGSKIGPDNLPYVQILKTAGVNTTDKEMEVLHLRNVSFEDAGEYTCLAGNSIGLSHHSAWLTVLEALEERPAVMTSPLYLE
Procedure: as §1

Sequence of FGFR1 on NCI-H520 cells (P11362 22-822): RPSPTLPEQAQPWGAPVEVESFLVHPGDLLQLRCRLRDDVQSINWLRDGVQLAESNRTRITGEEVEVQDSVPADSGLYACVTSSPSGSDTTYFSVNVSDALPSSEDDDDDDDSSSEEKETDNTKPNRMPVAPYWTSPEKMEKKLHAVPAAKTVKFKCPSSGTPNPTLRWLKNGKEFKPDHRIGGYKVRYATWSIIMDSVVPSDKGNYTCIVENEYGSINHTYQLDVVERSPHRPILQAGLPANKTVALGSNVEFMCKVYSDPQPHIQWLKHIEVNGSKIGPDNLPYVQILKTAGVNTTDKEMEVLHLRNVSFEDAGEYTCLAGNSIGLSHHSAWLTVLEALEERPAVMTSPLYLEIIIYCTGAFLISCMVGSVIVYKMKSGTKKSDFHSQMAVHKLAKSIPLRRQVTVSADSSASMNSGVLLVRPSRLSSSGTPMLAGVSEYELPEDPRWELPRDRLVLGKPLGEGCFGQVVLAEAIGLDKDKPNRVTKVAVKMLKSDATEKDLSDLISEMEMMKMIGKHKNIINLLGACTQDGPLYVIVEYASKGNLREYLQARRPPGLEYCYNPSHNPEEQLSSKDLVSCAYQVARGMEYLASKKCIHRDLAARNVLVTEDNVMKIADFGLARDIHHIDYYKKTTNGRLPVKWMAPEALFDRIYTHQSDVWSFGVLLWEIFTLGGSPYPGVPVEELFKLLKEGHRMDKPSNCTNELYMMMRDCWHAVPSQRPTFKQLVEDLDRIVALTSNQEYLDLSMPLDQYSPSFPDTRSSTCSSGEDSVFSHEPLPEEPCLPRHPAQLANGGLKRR

ΔΔGmut [1]: 0 kcal/mol | IC50, inhibition of P-FGFR1 in NCI-H520 cells, FGF1 stimulated [2]: 4 nM | IC50, inhibition of P-FGFR1 in NCI-H520 cells, FGF2 stimulated [2]: 0.2 nM | IC50, inhibition of P-FGFR1 in NCI-H520 cells, non-stimulated (hashtag: estimated IC50, poor fit) [2]: ~1000 nM | Kd [3]: 0.017 nM | Kd [4]: 0.46 nM | Kd [5]: 2.2 nM | Kd [6]: 0.01 nM | Kd [7]: 2.3 nM
B1: mAb #A08 (antibody, V domains shown)
VH: EVQLQESGPGLVKPSGTLSLTCAVSGGSISSNNWWSWVRQPPGKGLEWIGEIYHSGSTSYNPSLKSRVTISVDKSKNQFSLKLNSVTAADTAVYYCARGTDWFDPWGQGTLVTVSS
VL: QAVLTQPPSVSVAPGQTARITCGGNNIGSESVHWYQQKPGQAPVLVVYDDSDRPSGIPERFSGSNSGNTATLTISRVEAGDEADYYCQVWDSTSDHRVFGGGTKLTVL
notes: Only variable domains are tied to the name mAb #A08 (hit); also called #A08 hit; mAb #08
